In patent publication US20100261178A1:

How the values were obtained:
[1] = biological target: human adiponectin receptor AdipoR2 (human) (UniProt Q86V24)
[2] = biological target: human adiponectin receptor AdipoR1 (human) (UniProt Q96A54)

EC50 of adiponectin for repression of FET3-lacZ [1]: 2.4 pM | log EC50 pM of adiponectin for repression of FET3-lacZ [1]: 0.38 log EC50 pM | EC50 of adiponectin for repression of FET3-lacZ [2]: 0.7 pM | log EC50 pM of adiponectin for repression of FET3-lacZ [2]: -0.13 log EC50 pM
Substance: adiponectin (ligand)
